Patent publication US20240425603A1 (Janssen / Centocor, published 2024)
Several values for one entry are separate records, joined by “and”; a condition that tells them apart may be missing. Equal entries are not always repeated.

Columns and labels:
[1] = molecular target: T1, NECTIN1 Isoform Alpha (NM_203285.1) (human, UniProt Q15223-2 31-458); assay: Retrogenix cell microarray, fixed HEK293 cells, 2 ug/mL antibody
T1 construct: whole, on cells
T1 sequence (looked up): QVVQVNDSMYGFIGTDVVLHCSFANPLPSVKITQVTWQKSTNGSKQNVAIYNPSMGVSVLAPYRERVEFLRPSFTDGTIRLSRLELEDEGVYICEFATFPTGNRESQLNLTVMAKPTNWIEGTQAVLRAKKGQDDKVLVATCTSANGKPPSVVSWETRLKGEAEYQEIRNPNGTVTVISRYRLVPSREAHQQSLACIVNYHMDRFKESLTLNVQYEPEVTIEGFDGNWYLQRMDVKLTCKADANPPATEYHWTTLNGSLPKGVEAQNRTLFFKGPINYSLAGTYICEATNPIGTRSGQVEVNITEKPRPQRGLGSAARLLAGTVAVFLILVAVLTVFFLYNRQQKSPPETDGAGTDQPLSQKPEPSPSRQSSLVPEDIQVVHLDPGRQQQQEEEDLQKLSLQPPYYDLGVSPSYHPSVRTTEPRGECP
Description: (§1) This human cell microarray methodology has been previously described in the literature (Freeth, J. et al, SLAS Discovery, 25 (2), 223-230, 2020). Primary screening was performed on slides arrayed with fixed HEK293 cells with each spot of HEK293 cells expressing either a unique protein from the cell surface-ome, a cell surface tethered human secreted protein, or a heterodimeric human cell surface receptor. In total, 5,528 unique gene products were represented in this primary screen (4,103 human plasma membrane proteins (+some untethered secreted proteins)+1,425 cell surface tethered human secreted proteins). Briefly, slides containing fixed transfected HEK293 cells were overlaid with a solution of test antibody (2 μg/mL), incubated, and washed. Binding was assessed using AlexaFluor647-conjugated anti-human IgG Fc detection antibody and fluorescence quantitation on ImageQuant. […] Located in the ER, off-target binding to CRELD2 was of less concern. Nectin-1, FGFR2, and ISLR, on the other hand, display broad tissue expression profiles. Cross-reactivity to these proteins is undesirable because binding to these targets might have a significant impact on pharmacokinetic and biodistribution profiles of the molecules. This off-target binding was subsequently confirmed by flow cytometry on live HEK293 cells transiently expressing these ‘off-target’ proteins identified in the primary screen.

[2] = molecular target: T2, NECTIN1 Isoform Gamma (NM_203286.1) (human, UniProt Q15223-3 31-352); assay: Retrogenix cell microarray, fixed HEK293 cells, 2 ug/mL antibody; topology TS
T2 construct: whole, on cells
T2 sequence (looked up): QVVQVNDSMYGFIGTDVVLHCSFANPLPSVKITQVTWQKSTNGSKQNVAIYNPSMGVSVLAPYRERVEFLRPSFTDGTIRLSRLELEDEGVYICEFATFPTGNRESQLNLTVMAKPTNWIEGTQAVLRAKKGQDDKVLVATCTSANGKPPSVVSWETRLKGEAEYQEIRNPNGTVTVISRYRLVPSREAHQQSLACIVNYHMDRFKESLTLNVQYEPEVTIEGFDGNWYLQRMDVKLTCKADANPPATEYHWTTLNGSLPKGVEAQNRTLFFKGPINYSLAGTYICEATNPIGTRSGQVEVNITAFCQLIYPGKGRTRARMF
Description: as §1

[3] = molecular target: T3, rat VEGFR1 (soluble antigen of the KinExA and SPR affinity assays) (rat, UniProt P53767 23-758, limits assumed); assay: SPR
T3 sequence (looked up): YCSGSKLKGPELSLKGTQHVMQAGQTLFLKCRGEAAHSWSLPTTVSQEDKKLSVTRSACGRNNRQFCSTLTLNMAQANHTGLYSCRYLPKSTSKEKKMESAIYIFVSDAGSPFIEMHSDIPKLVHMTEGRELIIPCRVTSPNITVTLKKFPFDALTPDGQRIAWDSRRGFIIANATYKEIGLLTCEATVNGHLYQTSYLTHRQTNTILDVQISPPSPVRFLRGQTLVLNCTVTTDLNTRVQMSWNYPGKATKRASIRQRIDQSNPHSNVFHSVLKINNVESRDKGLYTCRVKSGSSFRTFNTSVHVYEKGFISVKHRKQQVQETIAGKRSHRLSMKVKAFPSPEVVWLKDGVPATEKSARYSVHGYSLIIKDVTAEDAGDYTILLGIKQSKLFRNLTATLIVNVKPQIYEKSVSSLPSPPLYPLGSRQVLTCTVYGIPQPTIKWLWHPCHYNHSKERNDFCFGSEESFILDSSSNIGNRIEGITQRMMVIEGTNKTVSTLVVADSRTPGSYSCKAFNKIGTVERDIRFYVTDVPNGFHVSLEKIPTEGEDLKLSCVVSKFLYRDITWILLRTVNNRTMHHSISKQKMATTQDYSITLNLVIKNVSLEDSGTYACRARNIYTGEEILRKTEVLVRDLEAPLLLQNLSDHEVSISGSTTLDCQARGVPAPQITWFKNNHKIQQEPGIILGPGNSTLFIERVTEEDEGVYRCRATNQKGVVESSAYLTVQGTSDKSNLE

[4] = molecular target: human VEGFR1 (soluble antigen of the KinExA and SPR affinity assays) (human, UniProt P17948 27-758, limits assumed); assay: SPR
[5] = molecular target: T4, Recombinant human VEGFR1-Fc (R&D Systems) (human, UniProt P17948 27-687, limits assumed); assay: biochemical ligand blocking assay; ligand and receptor form not given
T4 construct: bought; not shown: Fc part of the bought fusion, not described
Summary of the method: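 Antibodies were tested in a biochemical electro-chemiluminescence ligand blocking assay. Recombinant VEGFR1-Fc was captured on Protein A/G-coated MSD plates and pre-incubated for 30 minutes with half-log antibody dilutions. Biotinylated ligand was then added and detected with Sulfo-tagged streptavidin on an MSD imager. IC50 was calculated from the readings.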

ISLR (BC022478) = molecular target: T5, ISLR (BC022478) (human, UniProt O14498 19-428); assay: Retrogenix cell microarray, fixed HEK293 cells, 2 ug/mL antibody
T5 construct: whole, on cells; also called Immunoglobulin superfamily containing leucine-rich repeat protein
T5 sequence (looked up): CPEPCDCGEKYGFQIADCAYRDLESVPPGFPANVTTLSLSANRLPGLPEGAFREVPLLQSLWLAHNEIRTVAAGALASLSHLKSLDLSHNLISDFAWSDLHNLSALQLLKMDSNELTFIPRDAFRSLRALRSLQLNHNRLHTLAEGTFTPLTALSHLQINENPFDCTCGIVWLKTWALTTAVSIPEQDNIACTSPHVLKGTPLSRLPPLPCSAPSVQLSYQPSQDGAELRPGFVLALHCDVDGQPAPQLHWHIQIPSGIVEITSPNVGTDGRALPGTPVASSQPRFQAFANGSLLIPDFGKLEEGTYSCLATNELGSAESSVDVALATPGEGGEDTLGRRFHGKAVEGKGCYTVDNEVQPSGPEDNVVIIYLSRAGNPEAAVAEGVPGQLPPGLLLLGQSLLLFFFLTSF
Description: as §1

Sequence of human VEGFR1 (soluble antigen of the KinExA and SPR affinity assays) (P17948 27-758 limits assumed): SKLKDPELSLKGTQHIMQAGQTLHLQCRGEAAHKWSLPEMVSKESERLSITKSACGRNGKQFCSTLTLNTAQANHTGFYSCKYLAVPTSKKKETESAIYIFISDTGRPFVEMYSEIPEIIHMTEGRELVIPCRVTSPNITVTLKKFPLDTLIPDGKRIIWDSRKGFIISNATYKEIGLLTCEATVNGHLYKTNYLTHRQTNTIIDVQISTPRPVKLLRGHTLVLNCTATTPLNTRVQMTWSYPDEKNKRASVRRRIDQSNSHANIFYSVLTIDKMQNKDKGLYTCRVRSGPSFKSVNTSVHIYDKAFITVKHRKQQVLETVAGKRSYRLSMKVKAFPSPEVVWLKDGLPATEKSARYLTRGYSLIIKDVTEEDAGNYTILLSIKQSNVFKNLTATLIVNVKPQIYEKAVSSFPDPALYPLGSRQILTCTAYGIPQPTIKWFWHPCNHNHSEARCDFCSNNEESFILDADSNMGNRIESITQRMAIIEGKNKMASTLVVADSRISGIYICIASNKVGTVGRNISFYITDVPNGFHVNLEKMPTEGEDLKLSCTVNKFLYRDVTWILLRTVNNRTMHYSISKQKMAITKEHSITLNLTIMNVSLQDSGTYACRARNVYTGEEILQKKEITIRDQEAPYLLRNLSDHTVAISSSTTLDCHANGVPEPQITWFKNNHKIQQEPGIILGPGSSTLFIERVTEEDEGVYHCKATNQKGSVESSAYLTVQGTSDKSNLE
T4 sequence (P17948 27-687 limits assumed): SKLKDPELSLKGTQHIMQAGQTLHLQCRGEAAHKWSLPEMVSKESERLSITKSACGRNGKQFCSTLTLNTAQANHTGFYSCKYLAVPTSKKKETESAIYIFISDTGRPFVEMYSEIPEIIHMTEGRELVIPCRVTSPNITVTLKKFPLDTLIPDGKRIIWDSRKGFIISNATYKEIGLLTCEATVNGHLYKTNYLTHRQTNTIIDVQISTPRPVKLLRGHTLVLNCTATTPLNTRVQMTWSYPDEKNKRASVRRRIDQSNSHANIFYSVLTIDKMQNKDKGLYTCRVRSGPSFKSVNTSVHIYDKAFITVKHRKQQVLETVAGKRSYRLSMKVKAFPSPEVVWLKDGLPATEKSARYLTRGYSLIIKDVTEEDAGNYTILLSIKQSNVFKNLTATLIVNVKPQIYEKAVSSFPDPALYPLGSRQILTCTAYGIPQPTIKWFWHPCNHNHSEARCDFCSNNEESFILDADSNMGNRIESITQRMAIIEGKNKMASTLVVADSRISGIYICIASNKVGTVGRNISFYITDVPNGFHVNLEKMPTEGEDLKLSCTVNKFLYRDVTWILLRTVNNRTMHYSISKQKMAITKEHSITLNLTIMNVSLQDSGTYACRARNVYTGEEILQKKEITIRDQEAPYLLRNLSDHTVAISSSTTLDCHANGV

B1: VGFB71 (antibody, human IgG1, lambda, L234A L235A, V domains shown)
VH: EVQLLESGGGLVQPGGSLRLSCEASGFIFRDYNMNWVRQAPGKGLEWVSIITNDGSSTAYSDSVKGRFTISRDNSKNSLYLQMNSLRAEDTAIYYCVKVYYGMDDWGQGTTVTVSS
VL: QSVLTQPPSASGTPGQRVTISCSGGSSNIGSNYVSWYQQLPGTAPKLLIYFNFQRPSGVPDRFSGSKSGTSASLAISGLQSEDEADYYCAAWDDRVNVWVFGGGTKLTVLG
notes: human IgG1 (L234A/L235A/D265S)
[1]
  binding result: binds
[2]
  binding result: binds

B2: VGFB82 (antibody, human IgG1, lambda, L234A L235A, V domains shown)
VH: EVQLLESGGGLVQPGGSLRLSCEASGFDFSTYAMNWVRQAPGKGLEWVATINSEGTITSHAPAVKGRFTISRDNSKNTAYVQMNSLRAEDSAVYYCSSTTGTTHGMDVWGRGTTVTVSS
VL: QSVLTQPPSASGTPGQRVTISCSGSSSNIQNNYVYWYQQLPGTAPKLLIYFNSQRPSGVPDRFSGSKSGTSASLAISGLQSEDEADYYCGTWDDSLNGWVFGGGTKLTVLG
notes: as for B1
[3]
  Kd: 600 to 1000 pM
[4]
  Kd: 10 pM and < 6 pM

B3: VGFB54 (antibody, human IgG1, lambda, L234A L235A, V domains shown)
VH: EVQLLESGGGSVQPGGSLRLSCTASGFNFEDYGMNWVRQAPGKGLDWVSSINRNGDISTYHVDSVKGRFTISRDNSKNTLYLQMNSLRAEDTAIYYCTKNHDYHGMDVWGQGTTVTVSS
VL: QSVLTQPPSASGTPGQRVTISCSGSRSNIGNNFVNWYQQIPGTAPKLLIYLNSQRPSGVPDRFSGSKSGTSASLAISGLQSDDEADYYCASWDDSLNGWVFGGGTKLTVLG
notes: human IgG1 (L234A/L235A/D265S), lambda, 2H:2L; from OmniChicken
[5]
  IC50: 89.4 pM

B4: VGFB78 (antibody, human IgG1, lambda, L234A L235A, V domains shown)
VH: EVQLLESGGGLVQPGGSLRLSCAASSFTFYNYDMTWVRQAPGKGLEWVAGIGTSGTDMYYADSVKGRFTISRDNSKNTLYLQMNSLRAEDTAIYYCAKDYYYYGMDVWGLGTTVTVSS
VL: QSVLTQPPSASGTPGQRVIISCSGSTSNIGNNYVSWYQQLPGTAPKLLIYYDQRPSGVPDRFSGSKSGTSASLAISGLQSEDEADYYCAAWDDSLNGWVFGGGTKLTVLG
notes: as for B1
ISLR (BC022478)
  binding result: binds
